Substrate in the series “purified protein”: CC(=O)Oc1ccc([N+](=O)[O-])cc1
Briefly: purified protein. It is filed as biochemical, Danio rerio. The note with it: 20 mM Tris/HCl pH 7.5, 250 mM NaCl, 5 mM MgCl2, 25°C.

Series [1] deals with the molecule itself. Briefly: SEC-MALS; Superdex 75 (10/300 GL) followed online by MALLS; 20 mM Tris/HCl pH 7.5, 250 mM NaCl, 5 mM MgCl2. Background: Size exclusion chromatography separates by hydrodynamic size, large species first.

B1: ZfL2-1 esterase (ZfL2-1_ES) (Danio rerio) (protein)
chain: DVAIIGDSIVRHVRAASSKGNKVRTFCFPGARVKNISTQIPTILGAAESPGAVVLHVGTNDTGLRQSEILKKDFRSLIETVRRTSPATQIIVSGPLPTYRRGNERFSRLLALNEWLITWCKEQKLLFANNWNLFWERPRLFRPDGLHPSRAGAELLSDNISRLLRTI
notes: esterase domain D136-I302, codon-optimized synthetic gene, pETM41P, E. coli BL21-Star; 19 kDa monomer (MBP apparently removed)
As for B1, in the series “purified protein”, the Michaelis constant (Km) was determined as 430 ± 100 µM and the kcat came out at 0.32 ± 0.07 s⁻¹.

B2: ZfL2-1_CC, N-terminal construct comprising the coiled coil domain of the ZfL2-1 ORF1p (M15-T91) (domain or fragment, Danio rerio (zebrafish), UniProt Q3LG57 15-91, looked up)
chain: MEALELELEEVESQIRALVVRRSRLRERLLAVPNAKAVSSPKVRGNYNHIIPSTSTPRPSLSRPSAPGARLSQASFT
notes: ORF1 protein (ORF1p) of the ZfL2-1 non-LTR retrotransposon, Danio rerio, Uniprot Q3LG57, residues M15-T91; Expressed from pETM41P from a codon-optimized synthetic template
With B2, the “stoichiometry N” value in series [1] turned out to be 2.

The Km is the substrate concentration at which the rate is half of its maximum. One may read the kcat as the number of substrate molecules converted per active site and unit of time at saturation. Broadly, the stoichiometry N is a count of units in the complex or per binding partner.
